Data on 17 molecules can be found in patent US20090169562A1 (CRUCELL HOLLAND B V, published 2009).

The target in experiment [1] is T1, bovine serum albumin (BSA) (bovine, UniProt P02769 25-607).
T1 construct: Control antigen coated at 1% in PBS (pH 7.4); also called negative control antigen
Description: phage ELISA, BSA coated. As for the experimental part:
(§1) Selected single-chain phage antibodies that were obtained in the screens described above were validated in ELISA for specific enterococcal binding activity, i.e. binding to one or more enterococcal strains prepared as described supra. 2.5×10⁸ bacteria were coated overnight at 4° C. to Maxisorp™ ELISA plates in 50 μl 50 mM carbonate buffer, pH 9.6. As negative controls, the complex antigens 2% ELK and 1% BSA both in PBS (pH 7.4) were coated. Wells were washed in PBS containing 0.1% (v/v) Tween-20 and blocked with 300 μl PBS containing 2% ELK for at least 1 hour at room temperature. The selected single-chain phage antibodies were incubated for 15 minutes in an equal volume of PBS containing 2% ELK to obtain blocked phage antibodies. The plates were emptied and the blocked single-chain phage antibodies were added to the wells. Incubation was allowed to proceed for one hour at room temperature, the plates were washed in PBS containing 0.1% (v/v) Tween-20 and bound phage antibodies were detected using an anti-M13 antibody conjugated to peroxidase. Absorbance at 492 nm was measured using a spectrophotometer. As a control, the procedure was performed simultaneously without single-chain phage antibody and with a negative control single-chain phage antibody directed against West Nile virus envelope protein (SC04-374).

Experiment [2] deals with T1, bovine serum albumin (BSA). Description: phage ELISA, 1% BSA coated, anti-M13-HRP detection. As for the experimental part: as §1
(ELISA stands for enzyme-linked immunosorbent assay.)

T1 sequence (P02769 25-607 limits assumed): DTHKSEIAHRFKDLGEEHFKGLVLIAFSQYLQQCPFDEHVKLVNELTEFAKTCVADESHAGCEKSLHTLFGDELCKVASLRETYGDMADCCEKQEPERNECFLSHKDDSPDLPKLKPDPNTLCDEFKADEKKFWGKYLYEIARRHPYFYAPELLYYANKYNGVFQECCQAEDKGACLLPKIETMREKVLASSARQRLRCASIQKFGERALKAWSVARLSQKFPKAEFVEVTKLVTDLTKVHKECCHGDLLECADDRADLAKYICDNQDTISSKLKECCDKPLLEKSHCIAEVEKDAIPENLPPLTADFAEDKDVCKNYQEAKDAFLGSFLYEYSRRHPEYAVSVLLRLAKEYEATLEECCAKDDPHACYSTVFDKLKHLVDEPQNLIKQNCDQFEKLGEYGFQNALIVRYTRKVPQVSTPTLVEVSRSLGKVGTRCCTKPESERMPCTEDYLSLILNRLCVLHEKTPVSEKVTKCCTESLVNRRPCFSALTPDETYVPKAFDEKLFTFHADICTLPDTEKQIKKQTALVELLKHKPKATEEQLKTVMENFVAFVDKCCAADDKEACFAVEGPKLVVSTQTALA

B1: SC06-191 (scFv)
scFv: EVQLVESGGGVVQPGRSLRLSCVASEFTFSNYGMHWVRQAPGKGLEWVAVIWYDGSNEDYADSVKGRFTISRDNSKNTVYLHMNSLRAEDTAVYFCTRGQYSSTWFLDYWGQGTLVTVSSGTGGSGGTGSGTGGSTDIQLTQSPSTLSASVGDRVTITCRASQSISSWLAWYQQKPGKAPKLLIYKASSLETGVPSRFSGSGSGTDFTLTISSLQPEDFATYYCQQANSFPLTFGGGTKVDIK
notes: Vl 137-243); also called single-chain phage antibody SC06-191
As to B1, the binding result in experiment [1] is listed as “no binding”. The molecule further gave an OD492 nm in experiment [2] of 0.044 OD492 nm.

B2: SC06-195 (scFv, V domains shown)
VH: EVQLVESGGGVVQPGRSLRLSCAASGFTFSSYGMHWVRQAPGKGLEWVAVIWYDGSNKYYADSVKGRFTISRDNSQNTLYLQMNSLRAEDTAVYYCTSYAIAATPGQGTLVTVSS
VL: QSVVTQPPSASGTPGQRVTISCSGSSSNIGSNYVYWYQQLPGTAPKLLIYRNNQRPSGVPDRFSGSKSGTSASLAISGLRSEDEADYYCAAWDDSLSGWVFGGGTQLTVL
As for B2, the OD492 nm in experiment [2] worked out at 0.046 OD492 nm.

B3: SC06-089 (scFv)
scFv: EVQLVETGGGLVQPGGSLRLSCAASGFTFSSYSMNWVRQAPGKGLEWVSFISSSSSTIYYADSVKGRFTIARDNAKNSLYLQMNSLRDEDTAVYYCARPVGTGISLFHAFDIWGQGTMVTVSSGTGGSGGTGSGTGGSTQSVLTQPPSVSVAPGQTARITCGGNNIGSKYVHWYQQKPGQAPVLVVYDDSDRPSGIPERFSGSNSGNTATLTISRVEAGDEADFYCQVWDGSSDPVVFGGGTKLTVL
notes: Vl 140-247); also called single-chain phage antibody SC06-089
Take B3: the binding result in experiment [1] is reported as “no binding”. Moreover, in experiment [2], the OD492 nm is 0.042 OD492 nm.

B4: SC06-246 (scFv)
scFv: EVQLVESGGGLIQPGGSLRLSCAASGFTVSSDFMTWVRQAPGRGLEWVSLIYSGGKTNYADSVKGRFTISRDNSRNTLYLQMNSLRAEDTAVYYCARSVCSTISCSKLDDWGQGTLVTVSSGTGGSGGTGSGTGGSTQAVLTQPSSVSVAPGQTARITCGGNNIGRKSVHWYQQKPGLAPVLVVNDNSDRPSGIPARFSGSNSGNTATLTISRVEAGDEADYYCHVWGSSRDHYVFGTGTKVTVL
notes: Vl 138-245); also called single-chain phage antibody SC06-246
Consider B4, for which the binding result in experiment [1] is given as “no binding”. In addition, in experiment [2], the OD492 nm is 0.042 OD492 nm.

B5: SC06-079 (scFv)
scFv: EVQLVESGGGLVQPGGSLRLSCAASGFTFSSYAMSWVRQAPGKGLEWVSAISGTGGSAYYADSVKGRFTISRDNSKNTVYLQMNSLRAEDTAVYYCAKGHSSGTNWGQGTLVTVSSGTGGSGGTGSGTGGSTSYVLTQPPSASGTPGQRVTISCSGSSSNIGSNFVYWYQQLPGTAPKLLIYRNNQRPSGVPDRFSGSKSGTSASLAISGLRSEDEADYYCAAWDDSLSGVLFGGGTQLTVL
notes: Vl 133-242); also called single-chain phage antibody SC06-079
For the molecule B5, in experiment [1], the binding result was “no binding”. Besides, the OD492 nm in experiment [2] worked out at 0.048 OD492 nm.

B6: SC06-071 (scFv)
scFv: EVQLVESGGGVVQPGRSLRLSCAASGFTFSSYGMHWVRQAPGKGLEWVAMIWSDGSNKYYADSVKGRFTISRDNSKNTLYLQMNSLRVEDTAVYYCASNYGSGSYWGGFDYWGQGTLVTVSSGTGGSGGTGSGTGGSTQSALTQPASVSGSPGQSITISCTGTSSDVGGYNLVSWYQQHPGKAPKLMIYEGSKRPSGVSNRFFGSKSGDTASLTISGLQAEDEADYYCSSYTTSSTHVFGTGTKVTVL
notes: Vl 139-248); also called single-chain phage antibody SC06-071
Regarding B6, in experiment [1], the binding result was “no binding”. In experiment [2], this molecule returned an OD492 nm of 0.043 OD492 nm.

B7: SC06-198 (scFv)
scFv: QLQLQESGPGLVKPSETLSLTCAVSGYSITSGYYWGWVRQPPGKGLEWIGSIYHTGSTYYNPSLKSRVTISVDTSKNQFSLKLNSLTAADTAVYFCASQSPAFDFWGQGTMVTVSSGTGGSGGTGSGTGGSTQSVLTQPPSVSGAPGQRVTISCTGSSSNIGTGYDVHWYQQLPGTAPKLLIYGNNNRPSGVPDRFSGSKSGTSASLAITGLQAEDEADYYCATWDDSLNGWVFGGGTKLTVP
notes: Vl 133-243); also called single-chain phage antibody SC06-198
Turning to B7, the binding result in experiment [1] is recorded as “no binding”. Moreover, the OD492 nm in experiment [2] was determined as 0.049 OD492 nm.

B8: SC06-092 (scFv)
scFv: EVQLVESGGGLVQPGRSLRLSCTGSGFTFGDYAMSWFRQAPGKGLEWVGFIRNKAYGGTAEYAASVKDRFIISRDDSKSIAYLQMNSLKTEDTAVYYCVRREYDTGWLDYWGQGTLVTVSSGTGGSGGTGSGTGGSTQSALTQPPSASGSPGQSVTISCTGTSSDVGGYNYVSWYQRHPGKAPKLMIYDVTDRPSGVSNRFSGSKSGNTASLTISGLQAEDEADYYCSSYTSSSTSAVFGGGTKLTVL
notes: Vl 138-248); also called single-chain phage antibody SC06-092
In the case of B8, the binding result in experiment [1] is reported as “no binding”. This molecule gave an OD492 nm in experiment [2] of 0.047 OD492 nm.

B9: SC05-166 (scFv)
scFv: QVQLVQSGAEVKKPGASVKVSCKASGYTFTSYAISWVRQAPGQGLEWMGWISAYNGNTNYARKLQGRVTMTTDTSTSTAYMELRSLRSDDTAVYYCARAGLMFTAWFGELWDHGTKDNWFDPWGQGTLVTVSSGTGGSGGTGSGTGGSTNFMLTQPHSVSESPGKTVTISCTRSSGSIASYYVQWYQQRPGSSPTTVIYEDNQRPSGVPDRFSGSIDSSSNSASLTISGLKTEDEADYYCQSYDSSNQVFGGGTKLTVL
notes: Vl 150-259); also called single-chain phage antibody SC05-166
Turning to B9, the OD492 nm in experiment [2] came to 0.104 OD492 nm.

B10: SC05-157 (scFv)
scFv: EVQLVESGAEVKKPGESLKISCKGSGYSFTNYWIGWVRQMPGKGLEWMGIVYPGDSDTRYSPSFQGQVTISADKSISTAYLQWSSLKASDTAVYYCARRMAVAGSDAFDIWGQGTMVTVSSGTGGSGGTGSGTGGSTQAVLTQPSSASGTPGQTVTISCSGSTSNIGSHNVNWYQHLPGTAPKLLIYINNKRPSGVPDRFSGSKSGSSASLAISGLQSEDEADYYCAAWDDSLRRPVFGGGTQLTVL
notes: Vl 138-247); also called single-chain phage antibody SC05-157
Take B10: the binding result in experiment [1] is recorded as “no binding”. In experiment [2], this molecule gave an OD492 nm of 0.058 OD492 nm.

B11: SC06-242 (scFv)
scFv: EVQLVESGPGLVKPSETLSLTCTVSGGSISSYYWSWIRQPPGKGLEWIGYIYYTGTTNYNPSLNSRVTISADTSKNQFSLKLSSVTAADTAVYYCARGGQTAGVWGKGTTVTVSSGTGGSGGTGSGTGGSTQSVLTQPPSVSVAPGQTARITCGGYNIGRKSVHWYQQKPGLAPVLVVYDNSDRPSGIPARFSGSNSGNTATLTISGTQAMDEADYYCQAWDRGTAVFGTGTKVTVL
notes: Vl 132-237); also called single-chain phage antibody SC06-242
As for B11, the binding result in experiment [1] was “no binding”. For the same molecule, the OD492 nm in experiment [2] was 0.043 OD492 nm.

B12: SC06-078 (scFv)
scFv: EVQLVESGAEVKKPGSSVKVSCKASGGTFSSYAISWVRQAPGQGLEWMGGIIPIFGTANYAQKFQGKVTITADESTSTAYMELSSLRSEDTAVYYCARLSPRYYGMDVWGQGTTVTVSSGTGGSGGTGSGTGGSTQSALTQPRSVSGSPGQSVTISCTGTSSDVGGYNYVSWYQQHPGKAPKLMIYGGSERPSGVSNRFSGSKSGNTASLTISGVQAEDEADYYCSSYTSSGTLLFGGGTQLTVL
notes: Vl 136-245); also called single-chain phage antibody SC06-078
With B12, in experiment [1], the binding result is “no binding”. In addition, the OD492 nm in experiment [2] was found to be 0.073 OD492 nm.

B13: SC06-252 (scFv)
scFv: EVQLVETGGGLVQPGGSLRLSCAASGLTFSSYAMSWVRQAPGKGLEWVSALSGSTTFYADSVKGRFTISRDNAKNTLYLQMNSLRAEDTAVYYCARGNYYGMDVWGQGTTVTVSSGTGGSGGTGSGTGGSTSYVLTQPPSASGTPGQRVTISCSGSSSNIGKFYVYWYQQFPGAAPKLLIYSNNQRPSGVPDRFSGSKSGTSASLAISGLQSEDEADYYCAAWDGSLNGYVFGTGTKVTVL
notes: Vl 132-241); also called single-chain phage antibody SC06-252
As to B13, in experiment [1], the binding result was “no binding”. In experiment [2], the OD492 nm is 0.044 OD492 nm.

B14: SC06-087 (scFv)
scFv: EVQLVESGGGLVKPGGSLRLSCAASGFTFSSNSMNWVRQAPGKGLEWVSFISSSSTYIYYADSVKGRFTISRDNAKNSLYLQMNSLRAEDTAVYYCARESAAGISYDAFDIWGQGTMVTVSSGTGGSGGTGSGTGGSTQSALTQPASVSGSPGQSITISCTGTSSDVGGYKYVSWYQQHPGKAPKLMIYEVSNRPSGVSNRFSGSKSGSTASLTISGLQAEDEADYYCSSYTSSSTLGVFGTGTKVTVL
notes: Vl 139-249); also called single-chain phage antibody SC06-087
With B14, in experiment [1], the binding result is “no binding”. The same molecule returned an OD492 nm in experiment [2] of 0.044 OD492 nm.

B15: SC06-241 (scFv)
scFv: EVQLVESGGGLVQPGRSLRLSCAASGFTFRSYAMYWVRQAPGKGLEWLALISHDASKMFYADSVKGRFTISRDNSKNTLSLQMNSLTIEDTAVYYCVRERTGYYGAYWGQGTLVTVSSGTGGSGGTGSGTGGSTDIQMTQSPSSLSASVGDRVTLTCRASQGIGTWLAWYQQKPGKAPKLLIYSASSLQSGVPSRFSGSGSGTDFTLSISNLQPEDFATYYCQQANSFPITFGQGTRLEIK
notes: Vl 135-241); also called single-chain phage antibody SC06-241
Turning to B15, the binding result in experiment [1] is on record as “no binding”. In experiment [2], this molecule came in with an OD492 nm of 0.052 OD492 nm.

B16: SC06-077 (scFv)
scFv: QVQLVQSGAEVKKPGSSVKVSCKASGGTFSSYAISWVRQAPGQGLEWMGGIIPIFGTANYAQKFQGRVTITADESTSTAYMELSSLRSEDTAVYYCAREGGVGPAFDIWGQGTMVTVSSGTGGSGGTGSGTGGSTDIQMTQSPDSLAVSLGERATINCKSSQSVLHNSNNKNYLAWYQQKPGQPPKLLIYWASTRESGVPDRFSGSGSGTDFTLTISSLQAEDVAVYYCQQYYGSPYTFGQGTKLEIK
notes: Vl 136-248); also called single-chain phage antibody SC06-077
Take B16: the binding result in experiment [1] is recorded as “no binding”. This molecule registered an OD492 nm in experiment [2] of 0.044 OD492 nm.

B17: SC06-050 (scFv)
scFv: EVQLVESGPEVKKPGASVKVSCEASGYNLDNYGITWVRQAPGQGLEWLGWISAYNAKTEYGQRLQGRVTMTTDTATSTAYLELRSLRSDDTAVYYCARVLGYRGGWYDEGDAFDVWGQGTMVTVSSGTGGSGGTGSGTGGSTDIQLTQSPSFLSASVGDRVTITCRASQGIRSHLAWYQQKAGKAPKLLIYAASTLQSGVPSRFSGSGSGTEFTLTISSLQPDDFAAYYCQQLNTYPITFGQGTRLEIK
notes: Vl 143-249); also called single-chain phage antibody SC06-050
B17: the binding result in experiment [1] is “no binding”. The molecule also showed an OD492 nm in experiment [2] of 0.043 OD492 nm.
